B1: TRIM29 (parent)
chain: FAEKGELRKSIFSESRKPTVSIME

Variants of: B1
Assay: protein stability index of a GFP-peptide fusion (GPS, HEK-293T) (PSI 1-6); higher = more stable
Conditions: c terminus: a fixed tail appended
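Note: lentivirally expressed fusions sorted by FACS into six bins by GFP to DsRed ratio, PSI derived from sequencing read proportions per bin multiplied by bin number.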

| Variant | protein stability index |
| --- | --- |
| FAEKGELRVSIFSESRKPTVSIME [K9V] | 2.74 |
| FAEKGELRGSIFSESRKPTVSIME [K9G] | 2.3 |
| FAEKGELRSSIFSESRKPTVSIME [K9S] | 1.88 |
| FAEKGELRESIFSESRKPTVSIME [K9E] | 1.84 |
| FAEKGELRDSIFSESRKPTVSIME [K9D] | 1.85 |
| FAEKGELRMSIFSESRKPTVSIME [K9M] | 2.02 |
| FAEKGELRQSIFSESRKPTVSIME [K9Q] | 1.8 |
| FAEKGEPRKSIFSESRKPTVSIME [L7P] | 2.52 |
| FAEKGEIRKSIFSESRKPTVSIME [L7I] | 2.18 |
| FAEKGEWRKSIFSESRKPTVSIME [L7W] | 3.9 |
| FAEKGEGRKSIFSESRKPTVSIME [L7G] | 1.46 |
| FAEKGESRKSIFSESRKPTVSIME [L7S] | 2.22 |
| FAEKGEMRKSIFSESRKPTVSIME [L7M] | 2.02 |
| FAEKGEKRKSIFSESRKPTVSIME [L7K] | 1.7 |
| FAEKGECRKSIFSESRKPTVSIME [L7C] | 2.8 |
| FAEKGEDRKSIFSESRKPTVSIME [L7D] | 1.78 |
| FAEKGEARKSIFSESRKPTVSIME [L7A] | 2.25 |
| FAEKGETRKSIFSESRKPTVSIME [L7T] | 2.32 |
| FAEKGEQRKSIFSESRKPTVSIME [L7Q] | 2.31 |
| FAEKGEVRKSIFSESRKPTVSIME [L7V] | 1.62 |
| FAEKGENRKSIFSESRKPTVSIME [L7N] | 1.55 |
| FAEKGEFRKSIFSESRKPTVSIME [L7F] | 2.21 |
| FAEKGEHRKSIFSESRKPTVSIME [L7H] | 2.44 |
| FAEKGEYRKSIFSESRKPTVSIME [L7Y] | 2.08 |

| Variant | protein stability index |
| --- | --- |
| FAEKGERRKSIFSESRKPTVSIME [L7R] | 1.82 |
| FAEKGEERKSIFSESRKPTVSIME [L7E] | 3.15 |
| FAEKGELYKSIFSESRKPTVSIME [R8Y] | 2.54 |
| FAEKGELGKSIFSESRKPTVSIME [R8G] | 1.56 |
| FAEKGELEKSIFSESRKPTVSIME [R8E] | 2 |
| FAEKGELHKSIFSESRKPTVSIME [R8H] | 1.54 |
| FAEKGELCKSIFSESRKPTVSIME [R8C] | 2.08 |
| FAEKGELDKSIFSESRKPTVSIME [R8D] | 2.55 |
| FAEKGELVKSIFSESRKPTVSIME [R8V] | 2.74 |
| FAEKGELMKSIFSESRKPTVSIME [R8M] | 1.81 |
| FAEKGELIKSIFSESRKPTVSIME [R8I] | 2.81 |
| FAEKGELPKSIFSESRKPTVSIME [R8P] | 1.89 |
| FAEKGELSKSIFSESRKPTVSIME [R8S] | 1.47 |
| FAEKGELTKSIFSESRKPTVSIME [R8T] | 2 |
| FAEKGELAKSIFSESRKPTVSIME [R8A] | 3.85 |
| FAEKGELLKSIFSESRKPTVSIME [R8L] | 2.32 |
| FAEKGELNKSIFSESRKPTVSIME [R8N] | 2.44 |
| FAEKGELQKSIFSESRKPTVSIME [R8Q] | 1.93 |
| FAEKGELWKSIFSESRKPTVSIME [R8W] | 2.85 |
| FAEKGELKKSIFSESRKPTVSIME [R8K] | 2.23 |
| FAEKGELFKSIFSESRKPTVSIME [R8F] | 2.64 |
| FAEKGELRKSIKSESRKPTVSIME [F12K] | 3.54 |
| FAEKGELRKSICSESRKPTVSIME [F12C] | 2.96 |
| FAEKGELRKSIDSESRKPTVSIME [F12D] | 4.25 |

| Variant | protein stability index |
| --- | --- |
| FAEKGELRKSIGSESRKPTVSIME [F12G] | 2.59 |
| FAEKGELRKSIASESRKPTVSIME [F12A] | 2.74 |
| FAEKGELRKSIMSESRKPTVSIME [F12M] | 3.49 |
| FAEKGELRKSIESESRKPTVSIME [F12E] | 3.84 |
| FAEKGELRKSIISESRKPTVSIME [F12I] | 3.39 |
| FAEKGELRKSILSESRKPTVSIME [F12L] | 2.41 |
| FAEKGELRKSIHSESRKPTVSIME [F12H] | 4.04 |
| FAEKGELRKSINSESRKPTVSIME [F12N] | 3.43 |
| FAEKGVLRKSIFSESRKPTVSIME [E6V] | 1.93 |
| FAEKGNLRKSIFSESRKPTVSIME [E6N] | 1.36 |
| FAEKGGLRKSIFSESRKPTVSIME [E6G] | 1.47 |
| FAEKGHLRKSIFSESRKPTVSIME [E6H] | 2.38 |
| FAEKGSLRKSIFSESRKPTVSIME [E6S] | 1.8 |
| FAEKGYLRKSIFSESRKPTVSIME [E6Y] | 1.84 |
| FAEKGRLRKSIFSESRKPTVSIME [E6R] | 1.64 |
| FAEKGALRKSIFSESRKPTVSIME [E6A] | 1.77 |
| FAEKGQLRKSIFSESRKPTVSIME [E6Q] | 1.45 |
| FAEKGCLRKSIFSESRKPTVSIME [E6C] | 2.57 |
| FAEKGILRKSIFSESRKPTVSIME [E6I] | 1.82 |
| FAEKGLLRKSIFSESRKPTVSIME [E6L] | 2.78 |
| FAEKGMLRKSIFSESRKPTVSIME [E6M] | 1.78 |
| FAEKGWLRKSIFSESRKPTVSIME [E6W] | 2.02 |
| FAEKGPLRKSIFSESRKPTVSIME [E6P] | 2.78 |
| FAEKGKLRKSIFSESRKPTVSIME [E6K] | 1.85 |

| Variant | protein stability index |
| --- | --- |
| FAEKGDLRKSIFSESRKPTVSIME [E6D] | 1.44 |
| FAEKGTLRKSIFSESRKPTVSIME [E6T] | 1.56 |
| FAEKGFLRKSIFSESRKPTVSIME [E6F] | 2.65 |
| FAEKGELRKEIFSESRKPTVSIME [S10E] | 2.12 |
| FAEKGELRKQIFSESRKPTVSIME [S10Q] | 1.52 |
| FAEKGELRKGIFSESRKPTVSIME [S10G] | 2 |
| FAEKGELRKCIFSESRKPTVSIME [S10C] | 1.53 |
| FAEKGELRKFIFSESRKPTVSIME [S10F] | 2.32 |
| FAEKGELRKIIFSESRKPTVSIME [S10I] | 2.48 |
| FAEKGELRKMIFSESRKPTVSIME [S10M] | 2.12 |
| FAEKGELRKRIFSESRKPTVSIME [S10R] | 1.35 |
| FAEKGELRKVIFSESRKPTVSIME [S10V] | 2.46 |
| FAEKGELRKNIFSESRKPTVSIME [S10N] | 1.76 |
| FAEKGELRKAIFSESRKPTVSIME [S10A] | 1.91 |
| FAEKGELRKLIFSESRKPTVSIME [S10L] | 1.47 |
| FAEKGELRKWIFSESRKPTVSIME [S10W] | 2.35 |
| FAEKGELRKKIFSESRKPTVSIME [S10K] | 2.17 |
| FAEKGELRKTIFSESRKPTVSIME [S10T] | 1.82 |
| FAEKGELRKDIFSESRKPTVSIME [S10D] | 2.12 |
| FAEKGELRKYIFSESRKPTVSIME [S10Y] | 2.04 |
| FAEKGELRKHIFSESRKPTVSIME [S10H] | 1.84 |
| FAEKGELRKPIFSESRKPTVSIME [S10P] | 2.27 |
